Assay results: PMC5413510, “An Analysis of Trafficking Receptors Shows that CD44 and P-Selectin Glycoprotein Ligand-1 Collectively Control the Migration of Activated Human T-Cells” (Frontiers in Immunology, 2017)

B1: P-selectin glycoprotein ligand-1 (PSGL-1) from activated human T-cells (natural protein, human (endogenous in activated T-cells), UniProt Q14242 42-412, looked up)
chain: QATEYEYLDYDFLPETEPPEMLRNSTDTTPLTGPGTPESTTVEPAARRSTGLDAGGAVTELTTELANMGNLSTDSAAMEIQTTQPAATEAQTTQPVPTEAQTTPLAATEAQTTRLTATEAQTTPLAATEAQTTPPAATEAQTTQPTGLEAQTTAPAAMEAQTTAPAAMEAQTTPPAAMEAQTTQTTAMEAQTTAPEATEAQTTQPTATEAQTTPLAAMEALSTEPSATEALSMEPTTKRGLFIPFSVSSVTHKGIPMAASNLSVNYPVGAPDHISVKQCLLAILILALVATIFFVCTVVLAVRLSRKGHMYPVRNYSPTEMVCISSLLPDGGEGPSATANGGLSKAKSPGLTPEPREDREGDDLTLHSFLP
modifications: O-glycans
notes: P-selectin glycoprotein ligand-1 (CD162), human; also called CD162
B2: E-selectin on CHO cells expressing E-selectin (CHO-E) (receptor)
chain: WSYNTSTEAMTYDEASAYCQQRYTHLVAIQNKEEIEYLNSILSYSPSYYWIGIRKVNNVWVWVGTQKPLTEEAKNWAPGEPNNRQKDEDCVEIYIKREKDVGMWNDERCSKKKLALCYTAACTNTSCSGHGECVETINNYTCKCDPGFSGLKCEQIVNCTALESPEHGSLVCSHPLGNFSYNSSCSISCDRGYLPSSMETMQCMSSGEWSAPIPACNVVECDAVTNPANGFVECFQNPGSFPWNTTCTFDCEEGFELMGAQSLQCTSSGNWDNEKPTCKAVTCRAVRQPQNGSVRCSHSPAGEFTFKSSCNFTCEEGFMLQGPAQVECTTQGQWTQQIPVCEAFQCTALSNPERGYMNCLPSASGSFRYGSSCEFSCEQGFVLKGSKRLQCGPTGEWDNEKPTCEAVRCDAVHQPPKGLVRCAHSPIGEFTYKSSCAFSCEEGFELHGSTQLECTSQGQWTEEVPSCQVVKCSSLAVPGKINMSCSGEPVFGTVCKFACPEGWTLNGSAARTCGATGHWSGLLPTCEAPTESNIPLVAGLSAAGLSLLTLAPFLLWLRKCLRKAKKFVPASSCQSLESDGSYQKPSYIL
B3: recombinant mouse E-selectin/CD62E Fc chimera (E-Ig) (Fc fusion, UniProt Q00690 22-557, looked up)
chain: WYYNASSELMTYDEASAYCQRDYTHLVAIQNKEEINYLNSNLKHSPSYYWIGIRKVNNVWIWVGTGKPLTEEAQNWAPGEPNNKQRNEDCVEIYIQRTKDSGMWNDERCNKKKLALCYTASCTNASCSGHGECIETINSYTCKCHPGFLGPNCEQAVTCKPQEHPDYGSLNCSHPFGPFSYNSSCSFGCKRGYLPSSMETTVRCTSSGEWSAPAPACHVVECEALTHPAHGIRKCSSNPGSYPWNTTCTFDCVEGYRRVGAQNLQCTSSGIWDNETPSCKAVTCDAIPQPQNGFVSCSHSTAGELAFKSSCNFTCEQSFTLQGPAQVECSAQGQWTPQIPVCKAVQCEALSAPQQGNMKCLPSASGPFQNGSSCEFSCEEGFELKGSRRLQCGPRGEWDSKKPTCSAVKCDDVPRPQNGVMECAHATTGEFTYKSSCAFQCNEGFSLHGSAQLECTSQGKWTQEVPSCQVVQCPSLDVPGKMNMSCSGTAVFGTVCEFTCPDDWTLNGSAVLTCGATGRWSGMPPTCEAPVSPTRP
notes: E-selectin (CD62E), mouse; Mouse is named only in the flow cytometry methods; also called E-selectin-hIg chimera; recombinant E-selectin–Ig chimera; source: bought: R&D

Legend:
[1] = biological target: B3; test: SPR; BIAcore CM5 chip; CD44 and PSGL-1 captured from activated T-cell lysate by immobilised mAbs; 10 E-Ig concentrations (0.456-466.7 nM) injected at 30 ul/min in 150 mM NaCl running buffer; KD from steady-state fit; apparent koff from the buffer wash after the last injection; apparent kon calculated (Eq. 1 in Supplementary Material); isotype control subtracted; settings: both partners purified
[2] = biological target: CD44/HCELL from activated human T-cells (human (endogenous in activated T-cells))
[3] = biological target: CD44/HCELL from activated human T-cells (human (endogenous in activated T-cells)); test: SPR; BIAcore CM5 chip; CD44 and PSGL-1 captured from activated T-cell lysate by immobilised mAbs; 10 E-Ig concentrations (0.456-466.7 nM) injected at 30 ul/min in 150 mM NaCl running buffer; KD from steady-state fit; apparent koff from the buffer wash after the last injection; apparent kon calculated (Eq. 1 in Supplementary Material); isotype control subtracted
[4] = biological target: B1; test: as above; settings: both partners purified

Question: How did the Kd [1] turn out when B1 was run?
Answer: Its Kd is 467 nM.

Question: What about the koff [1] of the same binder?
Answer: The koff was 2.5e-05 s⁻¹.

Question: And the kon [1]?
Answer: Its kon is 52 M⁻¹ s⁻¹.

Question: Which average velocity of CHO-E cells rolling over the immuno-purified ligand on a blot (blot rolling assay, 0.5 dyn cm^-2, 2 mM Ca2+) [2] does the source give for B2 here?
Answer: Its average velocity of CHO-E cells rolling over the immuno-purified ligand on a blot (blot rolling assay, 0.5 dyn cm^-2, 2 mM Ca2+) is 3.3.

Question: Which Kd [3] does the source give for B3 here?
Answer: Its Kd is 777 nM.

Question: What about the koff [3] of the same binder?
Answer: The koff was 4.9e-05 s⁻¹.

Question: And the kon [3]?
Answer: The kon was 61 M⁻¹ s⁻¹.

Question: And the “stoichiometry N” value [4]?
Answer: Its value is ≥ 2 E-selectin dimers per PSGL-1 dimer.
